The values below are quoted from earlier work in paper PMC8393563.

pKd: −log10 of the molar value.

This data set addresses PGRMC1 (Homo sapiens) (UniProt O00264).

By pKd is commonly meant the negative decadic logarithm of the Kd, by convention in mol/L. In the case of PGRMC1 (from UniProt O00264), the pKd is > 5.46.
